Experiment: soluble on expression in E. coli; label from the status in PepcDB or PDB records

Soluble on expression in E. coli, not soluble:
MGSDKIHHHHHHMHININMDWLSAKGLPILGLDISTTAIKLVELSDAGKGMLRVERYIIEPLPKDAVSDGNIANLDQVADTLRHAWKTLGSRVKNVALALPSSAVITKKILAPASLTGIELENQVEAEANQVIPFALDEVNLDFQVLGPSPGSPDDMQILLAAARKEKVEDRVAAVEAAGLKALIMDVESYATQAAYEQIAHLLPNGGAGQTVAIIDVGAQNMHINILNDNESVYLREHGFGGNQLNNEIARRYGMSGEEAENAKRKGSLPESYELEVLQPYSETLAMEIGRALQLFTTSTQYRKIDQILLAGGGAMIPGLDEVVAQRTGTPTLVVNPFANMAVASKVRPQALTADAPSLFVACGLAMRRFDSQ
MGSDKIHHHHHHMHKTRYNALSVAFQISPRGPLLIKAGGISANPTLPDMQFVRTYHPYYGYTVYIPGSSLKGVVRGFVEKALRTLDDHTSWQWACPTFPDEDESCAKKLGKEENSATIYKNSCGACRLFGHTRLKGRVAFTDLLPVDEVKTEIRYGVAISRLSHAVAHGPFEMEVAVAGTFEGYLILENFELWQLGLLVLAFQGMNSGLLQIGFGKNRGFGEVAVQVQEARLDEVTSGMEIGLWRGLADFVSDEEKTRYGLSTTFTLNGMPDPLRTEPLGLYTRRIYDPKRWDEVAQRVTDKLGTT
MGSDKIHHHHHHMHNHPAKRINSIKLCLDVKVALTPQTESRDMAASSKDAAFWSKISRKYAADPIRNMDGYLQTLDRTKSYLKPEDHVLEIGCGTGSTALLLAPHVAHITGTDLAPGMIEIAAEKRAKEGLENVTFKVAETLDHNPQDGAYDAILAHNLLHLLHDLDQSLQRIAALTKTGGVFISKTVCAPKAGGIKYALIRALAIPLMQRIGKAPYVNFISVPDLERRIERAGFEICEVISQPGLMQSHYVVARKL
MGSDKIHHHHHHMHTMHIPSGDVLIPKPKLITEETDPLHIIKTRQKTHGRPVTIAGPMVRYSKLPFRQLCREYNVDIVYSPMILAREYVRNEHARISDLSTNNEDTPLIVQVGVNNVADLLKFVEMVAPYCDGIGINCGCPIKEQIREGIGCALIYNSDLLCSMVHAVKDKYGDKLRIETKIRIHEALDETVELCRKLCDAGVDWITIHGRTRRTRSSQPANLDAIKYIIENISDKNVPVIANGDCFKLSDLERITKYTGAHGVMAVRGLLSNPALFAGYTTCPWGCIEKFCYWALEFGGLPFQLAQHHLYCMLENMELKKSLLKKMMNLKNYISLIDWFNKTFEFKRYGEDGFGMGVEIPYKANSCVQRSASVVERQE
MGSDKIHHHHHHMIDKLEFFLALARERHFGRAAEECGVTQPTLSAAIRQLEEQLGVILVNRGSRFQGLTPEGQRVLEWARRIVSDSRTMREEMRAARKGLSGHMRLAAVPTTLSMVPLITAPFQEKHPDVTFSVLSTTSLQILALLENLEIDAGLTYLENEPLGRVTSVPLQIEQYHLVTAAGTALSDRESVTWKEVSDIRLCLLTADMQNRRIINQHFAEAGAVPKPTLESNSMIVLFSHVRTGRWASIMPYNVAKSFGFHEDIRMIPIVDPDVRHTVGLVATYREPFTPLVSALLHEARILGERNQVQ
MGSDKIHHHHHHMIDSMTHRKLSNTAQRPSPTRPRHGANATWRMLSVSALMLAMASTATWASDVKSQQTQAADIARNMANNTDTCYVEGVSDRLNCGFVTVPENPNKPDGKQIQVHYVVLPAVKNVNHEEALLAIAGGPGQSAIDNAAGFDAMLSKVRQQRDILLIDQRGTGRSNLLTCDEGAQSPLSFDDDNADTLAETQKCLAKIDADVTQYGSLNAIKDFEAVRQHLGYKKLHIYGISYGTRMAQLYMRLYPAHLATVTLDGIVPMQQSVLEIGASIDRGFDLLFKDCQETTACHAQFPELKAEFDQVAASLAKAPVMENVYDPVTGEKTMLTMTRGKFYGSIRMALYQANVRALVPHAIHQAAKHNFQPILGLYSLTTDNAGMAMGMHASVVCGEDMPRITPAMREQAQHSFMGKTMLEGLEATCEVWKVPAVDDSFSEPISSDIPTLLLSGEIDPATPPSWGELAMEKLTNAKHFVAPYATHGVAYQSCANNLIADLVRSGSVKDLDGECLKKDVRRSFYLNASSVEPLDATSTKTTDDNASTGAKE
MGSDKIHHHHHHMIDWLYSYPPLYPGILLKRYKRFFADVQLASGEVVTAHCPNTGPMTGVSTLGSVVQLSKSANPKRKLAYTLELIQVHDNEPTWVGVNTALPNQIVKLALAKYLFPELGSYNHIKSEVVYGVDKKSRVDFFLTGSDTERPIYLEVKNTTWAKGTLALFPDTETTRGQKHLRELMTLLPQTRSVMLYFINRGDCTEFAPGDSTDPIYGKLLREAIALGLEVLPCRFDVTPEGIRYLGLAKLVI
MGSDKIHHHHHHMIETRQKQERVILIGVALPNSENFDLSMEELASLAKTAGAEVVQTHTQKRDHYDSKSFIGSGKLLEIKQIIATDAIDSVIVNNRLTPRQNAYLEAELGVKVIDRMQLILDIFAMRARSHEGKLQVHLAQLKYMLPRLVGQGIMLSRQAGGIGSRGPGESQLELNRRSIRKQIADIERQLKNAEKNRETNREKRLDSQIFKIGLIGYTNAGKSTIMNVLTDNKQYEADELFATLDATTKQIYLTDHFQATLTDTVGFIQDLPTELVAAFKSTLEESRQVDLLLHVIDASDPNHEEHEKVVHDLLKELGMTAIPRLLVYNKMDKAENFIASQFPHISLSAKSDEAAALLRQSILEKIKTLFVPFTITWRQEKSYKLYELDKIALLTSYDVKQELQEIKGYISEKNKWRLEEFYRELS
MGSDKIHHHHHHMIEVQKQIDLDLELDIYKKLLEDNILFFDIETTGFDKEKEKVVLISGGWFLQDKKFVIKQYFAESLDEEVQVLKAFKEDVTKFNSWCSYNGKAFDEPFIKKRMNINNIEFTPPREHIDLYRIIRPYYKQLGMERCNLKSVEKYLGIHRADKIDGGISVELYYNFLDTKDERLRYVIMLHNYEDVLNLPSIFKLTYDIEKNDTLKREGGITKKQLDYLRFLMKKNNIQVTDDLKKISKKSASRIIDSILRGNIDIDKFNAIIKDSY
MGSDKIHHHHHHMIFINSRFLTQDVSGVQRYAEQMCRALQRLRNDLIFVAPRNIRLHDCAKALDVQHIGHATGHLWEQVDLPLHLKRKGNPLLVSISNTGPMFYANQIATHHDINYVRYPQSYTRLFRLAYRTITPILLSRARTLITGSSFSRGEIASFYGYAEDKVLVLPAAVSDDFTPRAVHRDQPDYLLAVSSPAAHKNFNRMIQAFLSLRGHADLQLHIVGAASSLFADPNLQRLACRDPRIRFLGRLSDAELIEQYQGASAFVFPSLYEGFGIPPLEAQACGCPVLAANAASIPEVLQASALYFDPLDVSHMAAAMHRVLSDAPLRQALRRQGLKNVQRFSWEISAQRLSQRIDALLEPAVQGKHHVAPESSPGKP
MGSDKIHHHHHHMIFSCPIDRSDVNEKLECEKGHKFGIIGGQIYDFLLKDVEVDKLLSRVIPIYESIWAPLGLLITSGKTYTSFLREIGEFIDGDLIIDVGTGTGKIFDFLNCKTCIGIDVSLRFLMYMKRKRTRVIAVRADANNLPLKSGIADGISSTLVLHMLSNPSFAIREMSRVLKSNGKCSIAVLANVNSIIGKTLSRWWKVNLRHYDYYINLLQENSLKVVERKELGPWEVINCIKIS
MGSDKIHHHHHHMIFTMKATKILICILCCTWICSCSLLEVDPVSTITSQSFWKTPGDAKAYLTGIYNKVRSLNNTSYYGEDRGDAFKAGEIGPTSVAWAHTLLESNAPSYRSAYNIIHHANLLFNKIESLKFTNETEKNRIKAECHFLRAYTYFLIVRIWGDAPIITDPVLSDNVELKPRSPKEDVMKLILEDIEQSVLLFPEDGYINKNLASKPAAYALKADVLMWKAKVLNGGNADLEEAIKAIDQVGGSGVSLLPDYAKVFANDNKKNNEIIFSFYFERYETGNLSIATNTTSRTDNLSMAVNLADAATSPNQSRHVYAPSDKARELYLKYPGDRRYKVAMIDLVDKDGNLILTQTNKFRGKAYSDDRYFDDDLIAYRWGDLLLLRAEANAALNKISESLVDLNEVRDRAGLEPYDGPKDKIAVEKEICDERLRELFIEQKRWFDLVRFHCGGTIDIYKEVPNLNDKPGYPLYFPINYNDMVLNDKLVQTDGYESNVER
MGSDKIHHHHHHMIILTRKDLDELLKAEIAVSSVKEAFKLHYQKKVDQPQRLVMSVKGNWWGLMPSSTDYSFVTKIVNVIPENKERGLPLVQGVVILMSPDTGEILAIIDGTTLTAIRTAAASILSTELAINGRNIGILGIIGAGTEAYYHAKLALEYFKVQKLYISARKSHFELAKRVGGEATDLETLLKNSDTIFATTSSNFPVVLGKYLKDVFHLSSIGAHTPDSRELDDDTIIKVKSYIVDSLEAVSKESGDYIIPKQRGLLENKMIKELGEIIEKGIKIERPSLFKTVGIAVEDNITAHIAYQEALRRGIGFNVSI
MGSDKIHHHHHHMIKIGAHMPISKGFDRVPQDTVNIGGNSFQIFPHNARSWSAKLPSDEAATKFKREMKKHGIDWENAFCHSGYLINLASPKDDIWQKSVELLKKEVEICRKLGIRYLNIHPGSHLGTGEEEGIDRIVRGLNEVLNNTEGVVILLENVSQKGGNIGYKLEQLKKIRDLVDQRDRVAITYDTCHGFDSGYDITKKEGVEALLNEIESLFGLERLKMIHLNDSKYPLGAAKDRHERIGSGFIGEEGFAVFFSFKEIQEVPWILETPGGNEEHAEDIKKVFEIIEKFGIEVD
MGSDKIHHHHHHMIKLSYLTSYITCPRLCYFRVHVGEKRFTELTAVREIYLSLKQGFDLDWAKKRAKALHGAFDEEAFRSAANKFIFPQIDCKSVEVDATIKSKSLGLLVSVDEIVECDGELLPLFLGLNPPENGVWFKDMVKAGAAALAGNYSKALIYYGYTGDLRPVEVTFSLKKKVIKLIERVKLIQRGFLPERKESRYCNYCSFSEDCKSRAETFASKFL
MGSDKIHHHHHHMILYFSGTGNSRYVARKIAQELNDELISLNQLIKDEKTDELISADKPFIFVCPTYAWRLPIVVTDFIKETKFLGSNRVYFVMTCGGDTAKSINYIQKLCKYKEWQLKGMAEIKMPENYIALFSTTDKETSKQMIKEADKQIYRIISDIRNENEFETITPSGLGGTIKSGIINTVFYKTIISAKGFHYTDKCIGCGKCVELCPLNNINLKNKKPVWKNNCTHCMACICGCPTEAIEYKNKTQNRERYYLE
MGSDKIHHHHHHMIMRILVVGDFLKTSGMTRYIFNVIGRIHASDFQVDALSISGKDECKGQVKKMGWGFYCVQAANNNLLRHLVQSFIFFKKHAKDYDVIHFNESALWNFLPIIFAHLFGAKRIILNSHNTYFATEGSKKLYVVLEIMHRIGKWLVAHVVAQNIAVSEEAARWMFTRKTINRHEYKIIVNGIELEKFAYNKEQRFKIRKSLKINEDTFLFGNVGIFNARKNQLRLLEIFNELVKRNLDVKLVLVGDGPIKEAIVAKISELRLADKVVMTGLINNTNEYYQAMDGVIMPSLNEGLSTVLLEAQTSGLQFILSEGLPLGNHIDLLVHEVPLSESNRVWADVVEHNMNREKREVFGSIMQKKGFDVELSAKELYQTYLEER
MGSDKIHHHHHHMINDHQYVADLHIHLGQTASNRPVKITAARTLTLENIIDYARTVKGIDIIGVIDCHVPEVLEGLKHSIESGEAYELKGGGIRFPDVTLILGTEIEVYDEESLGPVHVLAYTPTWNAMMELSSWMGSRMKNPTLSSQRLYETSIVLQQKVKELGGLFIPAHAFTPFKGVYGKGVKQSMGEIFDLALIDGIELGLSADTSMADQVEELHRFPFLSNSDAHSLEKLAREYQILHLYEPSFQAFQSALRDKDKCSIVANYGLNPYLGKYYETTCAQCRTPMKGSACETCGSSKVVKGVSERLTELATASENNGKQRPPYVHQIPLEFIPKVGKRTLARLREAFGTDMDILHQATFEQLCDVIPNHIAEAIVIAREGKATIKRGGGGHYGKMIGTE
